Assay results from patent publication US20140378382A1 (WISCONSIN ALUMNI RESEARCH FOUNDATION, published 2014).
Like-named read-outs stand apart in the source and are kept apart here. Non-standard residues stand in square brackets, D forms with d. No end group written: not given here. β3hW = N[C@H](CC(=O)O)Cc1c[nH]c2ccccc12; β3hE = N[C@@H](CCC(=O)O)CC(=O)O; β3hF = N[C@H](CC(=O)O)Cc1ccccc1; β3hK = NCCCC[C@H](N)CC(=O)O; β3hM = CSCC[C@H](N)CC(=O)O; β3hD = NC(CC(=O)O)CC(=O)O

T1: human parathyroid hormone receptor 1, wild-type (hPTHR-1) (human, UniProt Q03431 27-593)
T1 sequence (looked up): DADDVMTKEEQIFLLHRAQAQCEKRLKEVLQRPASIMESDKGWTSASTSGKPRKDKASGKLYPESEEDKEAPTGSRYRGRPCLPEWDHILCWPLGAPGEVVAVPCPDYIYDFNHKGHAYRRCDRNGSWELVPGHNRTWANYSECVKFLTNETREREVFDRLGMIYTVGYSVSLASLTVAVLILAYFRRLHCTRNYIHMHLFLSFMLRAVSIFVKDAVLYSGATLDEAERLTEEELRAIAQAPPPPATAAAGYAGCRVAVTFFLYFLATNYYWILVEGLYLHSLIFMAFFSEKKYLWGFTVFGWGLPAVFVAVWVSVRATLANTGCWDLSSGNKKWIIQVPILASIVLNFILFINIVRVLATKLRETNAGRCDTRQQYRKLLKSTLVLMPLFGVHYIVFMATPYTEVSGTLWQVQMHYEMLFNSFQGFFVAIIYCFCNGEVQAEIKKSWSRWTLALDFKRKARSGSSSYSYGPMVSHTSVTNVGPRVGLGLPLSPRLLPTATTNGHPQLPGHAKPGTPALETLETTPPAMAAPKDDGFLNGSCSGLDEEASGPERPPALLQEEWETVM

T2: rat parathyroid hormone receptor 1, wild-type (rPTHR-1) (rat, UniProt P25961 27-591)
T2 sequence (looked up): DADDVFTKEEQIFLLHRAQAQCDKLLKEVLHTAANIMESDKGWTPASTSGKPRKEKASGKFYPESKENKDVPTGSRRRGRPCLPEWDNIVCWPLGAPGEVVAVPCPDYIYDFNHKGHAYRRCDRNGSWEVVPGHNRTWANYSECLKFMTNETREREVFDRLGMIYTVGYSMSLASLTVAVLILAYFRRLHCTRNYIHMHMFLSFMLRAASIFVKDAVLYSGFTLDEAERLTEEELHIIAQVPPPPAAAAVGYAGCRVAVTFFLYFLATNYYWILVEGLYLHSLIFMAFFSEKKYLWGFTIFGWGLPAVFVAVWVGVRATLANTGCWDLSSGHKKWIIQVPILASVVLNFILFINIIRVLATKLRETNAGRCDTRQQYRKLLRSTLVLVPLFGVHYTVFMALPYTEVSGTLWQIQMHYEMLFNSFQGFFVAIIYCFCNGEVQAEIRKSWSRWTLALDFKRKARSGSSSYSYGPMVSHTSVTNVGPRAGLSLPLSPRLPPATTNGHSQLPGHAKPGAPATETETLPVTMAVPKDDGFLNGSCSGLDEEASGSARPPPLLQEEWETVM

T3: PTHR-1 (species and cells not stated for the assay) (Homo sapiens (Human), UniProt Q03431 27-593)
T3 sequence: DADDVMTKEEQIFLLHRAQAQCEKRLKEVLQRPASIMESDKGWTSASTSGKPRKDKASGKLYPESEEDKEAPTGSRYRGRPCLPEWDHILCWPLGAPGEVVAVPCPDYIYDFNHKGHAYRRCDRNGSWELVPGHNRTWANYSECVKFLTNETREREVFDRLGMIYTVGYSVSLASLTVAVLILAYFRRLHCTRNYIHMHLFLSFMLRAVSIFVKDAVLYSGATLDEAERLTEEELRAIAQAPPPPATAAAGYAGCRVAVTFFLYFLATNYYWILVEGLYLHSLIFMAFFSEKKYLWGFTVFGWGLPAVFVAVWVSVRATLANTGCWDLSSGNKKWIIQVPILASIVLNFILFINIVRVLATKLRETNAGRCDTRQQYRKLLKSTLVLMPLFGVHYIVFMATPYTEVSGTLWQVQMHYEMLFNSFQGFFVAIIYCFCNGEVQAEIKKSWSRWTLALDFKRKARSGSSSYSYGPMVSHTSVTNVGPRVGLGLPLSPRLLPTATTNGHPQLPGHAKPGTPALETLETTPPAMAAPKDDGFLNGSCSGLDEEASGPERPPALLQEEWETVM

B1: B5 (peptide)
peptide: SVSEIQLMHNLGKHLNSMERVEWLRKKLQDVQNF-NH2
modifications: not fully specified (residues 20, 24, 28, 32); printed as SVSEIQLMHNLGKHLNSMERVEWLRKKLQDVQNF-NH2; also: five β3 residues, positions not given here in text
notes: also called α/β-peptide B5

Columns and labels:
[1] = target: T1, human parathyroid hormone receptor 1, …; test: cell-based or functional assay
[2] = target: T2, rat parathyroid hormone receptor 1, …; test: cell-based or functional assay
[3] = target: T2, rat parathyroid hormone receptor 1, …; test: cell-based or functional assay; remark: listed apart in the source
[4] = target: T2, rat parathyroid hormone receptor 1, …; test: cell-based or functional assay; set-up: AUC-on / AUC-washout: unit not given beside the values
[5] = target: T2, rat parathyroid hormone receptor 1, …; test: R0 state; 125I-PTH(1-34) displacement; COS-7 membranes, rPTHR-1, GTPγS
Description: (§1) Binding inhibition constants are expressed as the -log (IC50) and corresponding nanoMolar (nM) values. Values are means (±SEM) of the number of experiments shown (n), each performed in duplicate.

[6] = target: T2, rat parathyroid hormone receptor 1, …; test: as above; remark: listed apart in the source
Description: as §1

[7] = target: T1, human parathyroid hormone receptor 1, …; test: RG state; 125I-M-PTH(1-15) displacement; COS-7 membranes, hPTHR-1 + Gαs mutant
Description: (§2) FIGS. 6A, 6B, 6C, 6D, 6E, and 6F constitute a series of graphs depicting binding of various analogs to the R⁰ and RG forms of human PTHR-1 (hPTHR-1). […] Data are means (±SEM) of n≧4 experiments, each performed in duplicate.

[8] = target: T2, rat parathyroid hormone receptor 1, …; test: RG state; 125I-M-PTH(1-15) displacement; COS-7 membranes, rPTHR-1 + Gαs mutant
Description: as §1

[9] = target: T1, human parathyroid hormone receptor 1, …; test: R0 state; 125I-PTH(1-34) displacement; COS-7 membranes, hPTHR-1, GTPγS
Description: as §2

[10] = target: T1, human parathyroid hormone receptor 1, …; test: cell-based or functional assay; remark: listed apart in the source
[11] = target: T2, rat parathyroid hormone receptor 1, …; test: RG state; 125I-M-PTH(1-15) displacement; COS-7 membranes, rPTHR-1 + Gαs mutant; remark: listed apart in the source
Description: as §1

[12] = target: T1, human parathyroid hormone receptor 1, …; test: R0 state; 125I-PTH(1-34) displacement; COS-7 membranes, hPTHR-1, GTPγS; remark: listed apart in the source
Description: (§3) ^aValues are means of n ≧4 experiments, each performed in duplicate.

[13] = target: T1, human parathyroid hormone receptor 1, …; test: RG state; 125I-M-PTH(1-15) displacement; COS-7 membranes, hPTHR-1 + Gαs mutant; remark: listed apart in the source
Description: as §3

[14] = target: T2, rat parathyroid hormone receptor 1, …; test: ratio of R0 IC50 to RG IC50, rPTHR-1
Description: as §1

[15] = target: T3, PTHR-1 (species and cells not stated …); test: cell-based or functional assay
[16] = target: T1, human parathyroid hormone receptor 1, …; test: ratio of R0 IC50 to RG IC50, hPTHR-1
[17] = target: T3, PTHR-1 (species and cells not stated …); test: cell-based or functional assay; remark: listed apart in the source

| Binder | cAMP EC50 [1] | cAMP Max [1] | cAMP EC50 [2] | cAMP Max [2] | cAMP EC50 [3] | cAMP Max [3] | cAMP pEC50 [3] | AUC-on [4] | AUC-washout [4] | -log (IC50) [5] | IC50 [5] | IC50 [6] | -log (IC50) [7] | IC50 [7] | IC50 [8] | -log (IC50) [9] | IC50 [9] | cAMP EC50 [10] | cAMP Max [10] | cAMP pEC50 [10] | further results |
| --- | --- | --- | --- | --- | --- | --- | --- | --- | --- | --- | --- | --- | --- | --- | --- | --- | --- | --- | --- | --- | --- |
| B1 | 0.11 nM | 0.98 relative to PTH(1-34) | 1.45 nM | 0.78 relative to PTH(1-34) | 1.45 nM | 51 cps × 10-3 | 8.84 | 130000 | 84000 | 7.18 | 65 nM | 65 nM | 10.1 | 0.086 nM | 4.2 nM | 7.72 | 19 nM | 0.11 nM | 212 cps × 10^-3 | 9.97 | -log (IC50) [11]: 8.37; IC50 [11]: 4.2 nM; IC50 [12]: 19 nM; IC50 [13]: 0.086 nM |
| SVSEIQLMHNLGK[β3hW]LNS[β3hM]ERV[β3hE]WLR[β3hK]KLQ[β3hD]VHN[β3hF]-NH2 (also called α/β-peptide D6) [D6] | 0.13 nM | 0.87 relative to PTH(1-34) | 0.33 nM | 0.76 relative to PTH(1-34) | 0.33 nM | 50 cps × 10-3 | 9.48 | 100000 | 130000 | 8.22 | 6.1 nM | 6.1 nM | 10.2 | 0.065 nM | 0.81 nM | 8.69 | 2 nM | 0.13 nM | 189 cps × 10^-3 | 9.89 | R^0/RG [14]: 8 ratio; Fold PTH(1-34) [3]: 0.79 fold; AUC Ratio [4]: 1.5; Fold PTH(1-34) [10]: 0.76 fold; cAMP response PTH1R/PTH2R [15]: 33 ratio; -log (IC50) [11]: 9.09; IC50 [11]: 0.81 nM; R^0/RG [16]: 31 ratio; IC50 [12]: 2 nM; Fold PTH [17]: 2.1 fold; cAMP EC50 [17]: 0.17 nM; IC50 [13]: 0.065 nM |
